B1: anti-AAA variant Fc-region antibody M1.6.22 (antibody, V domains shown)
VH: EVQLVESGGDLVKPGGSLKLSCAASGFTFSSYGMSWVRQTPDKRLEWVATISSGGSYIYYPDSVKGRFTISRDNAKNTLYLQMSSLKSEDTAMYYCARLGMITTGYAMDYWGQGTSVTVSS
VL: DVLMTQTPLSLPVSLGDQASISCRSSQTIVHSTGHTYLEWFLQKPGQSPKLLIYKVSNRFSGVPDRFSGSGSGTDFTLKISRVEAEDLGVYYCFQGSHVPYTFGGGTKLEIK
notes: Murine variable domains; also called M1.6.22-Bi
B2: anti-PG variant Fc-region antibody M1.3.17 (antibody, V domains shown)
VH: EVKLLESGGGLVQPGGSLKLSCAASGIDFRRYWMNWVRQAPGKGLEWIGEIDPDSSTINYTPSLKDKFIISRDNAKNTMYLQMRKVRSEDTALYYCARPYDYGAWFAYWGQGTLVTVSA
VL: QAVVTQESALTTSPGETVTLTCRSTTGAVTTSNYANWVQEKPDHLFTGLIGGTNKRAPGVPARFSGSLIGDKAALTITGAQTEDEAIYFCALWYSDHWVFGGGTKLTVL
notes: Monomeric, bivalent full-length antibody with murine variable domains; Biotinylated when used as capture antibody; also called anti-PG antibody clone 1.3.17; M1.3.17-Bi
B3: anti-PG variant Fc-region antibody M1.7.24 (monomeric, bivalent) (antibody, V domains shown)
VH: EVKLLESGGGLVQPGGSLKLSCAASGFDFSRYWMNWVRQAPGKGLEWIGEITPDSSTINYTPSLKDKFIISRDNAKNTLYLQMIKVRSEDTALYYCVRPYDYGAWFASWGQGTLVTVSA
VL: QAVVTQESALTTSPGETVTLTCRSSTGAVTTSNYANWVQEKPDHLFTGLIGGTNKRAPGVPARFSGSLIGDKAALTITGAQTEDEAIYFCALWYSNHWVFGGGTKLTVL
notes: Full-length Y-shaped antibody with murine variable domains; Biotinylated when used as capture antibody; also called anti-PG antibody clone 1.7.24; M1.7.24-Bi

What was measured:
[1] = target: T1, anti-P-Selectin antibody (IgG4 subclass with mutations S228P/L235E); test: ELISA assay B, tracer M1.7.10-Dig, target 50 ng/mL
T1 construct: Positions are EU numbers; also called sample 4; antibody 4
Experimental: (§1) Biotinylated anti-PG Fc-region antibody or biotinylated anti-AAA Fc-region antibody, respectively, was bound to the wells of a streptavidin-coated multi-well plate (SA-MTP) to produce a capture plate. Excess of unbound antibody was removed by washing. Sample/standard antibodies spiked in human and cynomolgus monkey serum (10% final concentration) was added to wells of the SA-MTP multi-well plate coated with the capture plate and incubated for 1 hour at room temperature. After washing, the wells were incubated with digoxygenylated anti-human kappa antibody M1.7.10 (see e.g. WO 2011/048043, incorporated herein by reference). After washing the bound digoxygenylated anti-human kappa antibody complex was incubated with a horseradish peroxidase (HRP) labelled anti-digoxygenin antibody. After another washing step, an ABTS solution was added to the wells and incubated. The product of the color reaction was measured by Elisa reader at 405 nm wavelength (reference wavelength: 490 nm). Absorbance values of each sample or standard were determined in triplicates.

[2] = target: T2, anti-VEGF/ANG2 antibody (IgG1 subclass with mutations P329G/L234A/L235A); test: ELISA assay B, tracer M1.7.10-Dig, target 50 ng/mL
T2 construct: Positions are EU numbers; also called sample 2; antibody 2
Experimental: as §1

[3] = target: T3, anti-IGF-1R antibody (IgG1 subclass with mutations I253A/H310A/H435A); test: ELISA assay B, tracer M1.7.10-Dig, target 50 ng/mL
T3 construct: Positions are EU numbers; also called sample 3; antibody 3
Experimental: as §1

[4] = target: T4, anti-VEGF/ANG2 antibody (IgG1 subclass with mutations P329G/L234A/L235A/I253A/H310A/H435A); test: ELISA assay B, tracer M1.7.10-Dig, target 50 ng/mL
T4 construct: Format of the bispecific antibody not described; Positions are EU numbers, not positions on the UniProt entry; also called sample 1; antibody 1
Experimental: as §1

[5] = target: T5, anti-VEGF/ANG2 antibody (wild-type IgG1 subclass) (UniProt P01857-1 1-330 = IgG part); test: ELISA assay B, tracer M1.7.10-Dig, target 50 ng/mL
T5 construct: also called sample 5; antibody 5
Experimental: as §1

[6] = target: T2, anti-VEGF/ANG2 antibody (IgG1 subclass …); test: ELISA assay B, tracer M1.7.10-Dig, target 2 ng/mL
Experimental: as §1

[7] = target: T1, anti-P-Selectin antibody (IgG4 subclass …); test: ELISA assay C, tracer FcγRI-Dig, target 25 ng/mL
[8] = target: T2, anti-VEGF/ANG2 antibody (IgG1 subclass …); test: ELISA assay C, tracer FcγRI-Dig, target 25 ng/mL
[9] = target: T3, anti-IGF-1R antibody (IgG1 subclass …); test: ELISA assay C, tracer FcγRI-Dig, target 25 ng/mL
[10] = target: T4, anti-VEGF/ANG2 antibody (IgG1 subclass …); test: ELISA assay C, tracer FcγRI-Dig, target 25 ng/mL
[11] = target: T5, anti-VEGF/ANG2 antibody (wild-type IgG1 …); test: ELISA assay C, tracer FcγRI-Dig, target 25 ng/mL
[12] = target: T4, anti-VEGF/ANG2 antibody (IgG1 subclass …); test: bridging ELISA, target-Bi capture and target-Dig tracer, binder 125 ng/mL, against the blank
Experimental: A dilution series of the monomeric full-length anti-PG Fc-region antibody clone 1.3.17 was prepared as standards for checking the possibility of generating a standard curve.
Biotinylated anti-VEGF/ANG2 antibody with the mutations P329G, L234A, L235A, I253A, H310A, and H435A and digoxygenylated anti-VEGF/ANG2 antibody with the mutations P329G, L234A, L235A, 1253A, H310A, and H435A were pre-incubated with the standards overnight at room temperature. After pre-incubation, the samples were transferred to a streptavidin-coated multi-well plate and incubated for 1 hour at room temperature. Excess of unbound antibody was removed by washing. After a washing step the bound digoxygenylated complexes comprising biotinylated and digoxygenylated anti-VEGF/ANG2 antibody with the mutations P329G, L234A, L235A, 1253A, H310A, and H435A as well as the monomeric, full-length anti-PG Fc-region antibody M1.3.17 (SEQ ID NO: 03 and 04) were detected with an horseradish peroxidase (HRP) labelled anti-digoxygenin-antibody. After a washing step and upon incubation with the respective substrate the HRP present in the formed complex catalyzes the conversion of ABTS into a colored product. The signal was measured by Elisa reader at 405 nm wavelength (reference wavelength: 490 nm). Absorbance values of each serum sample were determined in triplicates.

[13] = target: T6, drug antibody (capture and tracer of the bridging immunoassay of FIGS. 2, 7 and 8; not named); test: bridging immunoassay, drug antibody as capture and tracer, binder at 1000 ng/mL
T6 construct: also called the same but differently derivatized drug antibodies

[14] = target: T6, drug antibody (capture and tracer of …); test: bridging immunoassay, drug antibody as capture and tracer, binder at 2,500 ng/ml

| Binder | signal [OD405 nm] [1] [OD405 nm] | signal [OD405 nm] [2] [OD405 nm] | signal [OD405 nm] [3] [OD405 nm] | signal [OD405 nm] [4] [OD405 nm] | signal [OD405 nm] [5] [OD405 nm] | signal [OD405 nm] [6] [OD405 nm] | signal [OD405 nm] [7] [OD405 nm] | signal [OD405 nm] [8] [OD405 nm] | signal [OD405 nm] [9] [OD405 nm] | signal [OD405 nm] [10] [OD405 nm] | signal [OD405 nm] [11] [OD405 nm] | signal to noise ratio [12] | signal-to-noise ratio (S/N) [13] | signal-to-noise ratio [14] |
| --- | --- | --- | --- | --- | --- | --- | --- | --- | --- | --- | --- | --- | --- | --- |
| B1 | 0.047 | 0.127 | 2.9 | 0.05 | 0.049 | 0.041 | 0.06 | 0.063 | 0.401 | 0.081 | 0.066 | – | – | – |
| B2 | 0.049 | 0.215 | 0.048 | 0.035 | 0.042 | 0.125 | 1.17 | 1.21 | 1.2 | 1.07 | 1.16 | 1.85 | – | – |
| B3 | 0.043 | 3.17 | 0.064 | 0.06 | 0.04 | 1.73 | 0.07 | 0.083 | 0.073 | 0.082 | 0.063 | – | 3.8 | > 2 |
